The results in this text go back to patent publication US20200102400A1.

Like-named read-outs stand apart in the source and are kept apart here.

Assay [1] concerns the target FcγRs. Kind of assay: cell-based or functional assay.
The target in assay [2] is C1q protein from human serum (human) (UniProt P02745). Kind of assay: FACS, spheroplasts, 10 nM C1q-PE. On the technique in general: A flow cytometer gives signals particle by particle.
For assay [3], the target named is FcγRIIIa-V158-Streptavidin (tetrameric) (human) (UniProt P08637).
The target is the same in assay [4]. This is another data set of the same source.
Assay [5] has as its target C1q protein from human serum (human) (UniProt P02745). The experiment in a line: FACS, spheroplasts, 10 nM C1q-PE, high-salt buffer (FIG. 3C).
For assay [6] the target is unchanged. The experiment in a line: FACS, cell display, 10 nM C1q-PE.
The target is the same in assay [7]. The experiment in a line: FACS, 10 nM C1q-PE; reference itself.
In assay [8] the target is FcγRIIIa-V158-GST (dimeric FcγRIIIaV158) (human) (UniProt P08637).
Assay [9] deals with FcγRIIb-GST (dimeric FcγRIIb) (human) (UniProt P31994).
Sequence of FcγRIIb-GST (dimeric FcγRIIb) (human) (P31994 43-217): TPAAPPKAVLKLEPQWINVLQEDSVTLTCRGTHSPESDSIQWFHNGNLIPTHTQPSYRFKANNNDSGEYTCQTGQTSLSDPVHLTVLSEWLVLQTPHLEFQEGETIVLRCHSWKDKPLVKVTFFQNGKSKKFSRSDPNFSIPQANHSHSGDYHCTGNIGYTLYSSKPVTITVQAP

Sequence of C1q protein from human serum (human) (P02745 23-245, chain 1 of 3): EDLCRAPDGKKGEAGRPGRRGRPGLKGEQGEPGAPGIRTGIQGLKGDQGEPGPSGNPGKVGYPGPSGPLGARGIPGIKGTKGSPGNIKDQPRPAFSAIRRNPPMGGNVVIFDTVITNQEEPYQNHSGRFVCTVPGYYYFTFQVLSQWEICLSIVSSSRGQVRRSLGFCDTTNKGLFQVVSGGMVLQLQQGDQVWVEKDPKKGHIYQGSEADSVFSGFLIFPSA
Sequence of C1q protein from human serum (human) (P02746 28-253, chain 2 of 3, further chain): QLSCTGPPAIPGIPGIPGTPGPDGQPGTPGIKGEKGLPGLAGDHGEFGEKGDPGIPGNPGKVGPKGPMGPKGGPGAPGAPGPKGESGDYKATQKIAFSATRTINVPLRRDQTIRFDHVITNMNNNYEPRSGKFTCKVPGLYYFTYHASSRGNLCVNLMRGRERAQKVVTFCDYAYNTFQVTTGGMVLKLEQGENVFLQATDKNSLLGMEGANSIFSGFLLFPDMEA
Sequence of C1q protein from human serum (human) (P02747 29-245, chain 3 of 3, further chain): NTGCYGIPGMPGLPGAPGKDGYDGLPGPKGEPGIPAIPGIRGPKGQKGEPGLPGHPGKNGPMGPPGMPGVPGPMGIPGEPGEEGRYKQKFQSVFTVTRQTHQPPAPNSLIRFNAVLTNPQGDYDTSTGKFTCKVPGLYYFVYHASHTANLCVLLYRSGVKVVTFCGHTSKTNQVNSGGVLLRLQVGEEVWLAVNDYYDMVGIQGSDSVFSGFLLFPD
Sequence of FcγRIIIa-V158-Streptavidin (tetrameric) (human) (P08637 17-208 F176V): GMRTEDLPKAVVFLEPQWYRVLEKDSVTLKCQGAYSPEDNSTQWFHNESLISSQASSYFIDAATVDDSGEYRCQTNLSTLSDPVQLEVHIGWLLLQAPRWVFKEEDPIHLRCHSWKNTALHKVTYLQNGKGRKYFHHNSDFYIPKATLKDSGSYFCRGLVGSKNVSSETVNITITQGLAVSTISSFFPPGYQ
Sequence of FcγRIIIa-V158-GST (dimeric FcγRIIIaV158) (human) (P08637 17-208 F176V): as above

On to “Rituximab (glycosylated wild-type IgG1) (antibody)”, for which the ADCC EC50, Raji targets, PBMC in assay [1] was found to be 2.11 nM.

In the case of “wild-type aglycosylated IgG displayed on E. coli spheroplasts (antibody)”, the MFI is 54.7 in assay [2]; 6.44 in assay [3]; 36.6 in assay [4]; 14.9 in assay [5]; 23.5 in [6]; 3.8 in assay [8]. This substance also registered an MFI in [9] of 4.5. The substance also gave an Increasing Fold in [7] of 1 fold.
